According to the supplement of paper PMC9170038:

System: MS2 coat protein
Assay: apparent KD of MS2 coat protein; designed switch direction (-1 OFF switch, 1 ON switch): 1; higher = weaker reporter binding
Summary of the method: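 On Illumina chips, designed RNA switches with common flanks were made by stalled E. coli RNA polymerase. Titrations with SNAP-549-labelled MS2 coat protein, doubling from 0.7 or 1.5 nM to 3 µM, were done with no input, with 200 uM small-molecule ligand, or with an oligonucleotide input. Apparent KD is the median per design over clusters, from curve fits of normalised cluster fluorescence.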

[1] = input ligand: microRNA oligo, concentration not stated
[2] = Eterna round: R95, input ligand: FMN 200 uM
[3] = Eterna round: R95, input ligand: microRNA oligo, concentration not stated
[4] = Eterna round: R95, input ligand: none

Sequence	apparent KD of MS2 coat protein (input ligand: FMN 200 uM) [nM]	apparent KD of MS2 coat protein [1] [nM]	apparent KD of MS2 coat protein (input ligand: none) [nM]	apparent KD of MS2 coat protein [2] [nM]	apparent KD of MS2 coat protein [3] [nM]	apparent KD of MS2 coat protein [4] [nM]
GGUAGGUUACUACCAAACAUGAGGAUCACCCAUGUAAGUGGGAAGGAUAUGGUACCUUUUAGGUACCAGAAGGUCCAAUUAAUU [JL Fiskers NG3ss - 2 mod 5] (Eterna round: R96, puzzle: Same State NG 3)	205	511	3700			
GGUAGGUUACUACCAGACAUGAGGAUCACCCAUGUAAAUGGGAAGGAUAUGGUACCGUUUCGGUACCAGAAGGUCCUAAGUGAG [JL SSNG3 1.48] (Eterna round: R96, puzzle: Same State NG 3)	667	367	2280			
GGUCCAGCCUGAGCUGGACAAAAGCAUGUACAUGAGGAUCACCCAUGUCAUGUACAAGCUUUUUGCUCGUCUUAAAU [Mat - hsa-mir-208a - 84] (puzzle: Sensor for hsa-mir-208a)				495	16.1	800
GGUCCAGCCUGAGCUGGACAAAAGCAUGUACAUGAGGAUCACCCAUGUCAUGUACAAGCUUUUUGCUCGUCUUAAGU [Mat - hsa-mir-208a - 86] (Eterna round: R96, puzzle: Sensor for hsa-mir-208a)	625	14.1	687			
GGUCCAGCCUGAGCUGGACAAAAGCAUGUACAUGAGGAUCACCCAUGUCAUGUACAAGCUUUUUGCUCGUCUUAAGU [Mat - hsa-mir-208a - 86] (puzzle: Sensor for hsa-mir-208a)				508	16.8	927
GGUCCAGCCUGAGCUGGACAAAAGCAUGUACAUGAGGAUCACCCAUGUCAUGUACAAGCUUUUUGCUCGUCUUGAAA [JL mod - D87 - 8] (puzzle: Sensor for hsa-mir-208a)				359	16.5	867
GGUCCAGCCUGAGCUGGACAAAAGCAUGUACAUGAGGAUCACCCAUGUUCAUGUACAAGCUUUUUGCUCGUCUUAAA [salish99_208a_r3_035] (puzzle: Sensor for hsa-mir-208a)				427	14.7	633
GGUCCAGCCUGAGCUGGACAAAAGCAUGUACAUGAGGAUCACCCAUGUUCAUGUACAAGCUUUUUGCUCGUCUUAAU [salish99_208a_r3_036] (puzzle: Sensor for hsa-mir-208a)				525	15	492
GGUCCCUACGCACAGGAUAUUCUUUUGGCAACAUGAGGAUCACCCAUGUGUGCCGAUCAUGGUUAGAAGAAGGGUGGUAGGGACC [Usisus] (Eterna round: R96, puzzle: Same State 2)	10	10.5	19.8			
GGUCCCUACGCACAGGAUAUUCUUUUGGCAACAUGAGGAUCACCCAUGUGUGCCGAUCAUGGUUAGAAGAAGGGUGGUAGGGACC [Usisus] (puzzle: Same State 2)				9.87	12.9	13.5
GGUCCCUACGCACAGGAUAUUCUUUUGGCAACAUGAGGAUCACCCAUGUGUGCCGAUCAUGGUUAGAAGAAGGGUGGUAGGGACG [Cesovexe] (puzzle: Same State 2)				12	11.4	16.8
GGUCCGGCCUGAGCUGGACCGAAGCAUGUACAUGAGGAUCACCCAUGUCAUGUACAGGCUUUUUGCUCGUCUUGUUG [JL-shm-2.14 JL Mod] (puzzle: Sensor for hsa-mir-208a)				691	17.2	746
GGUCGGAACCACAUGAGGAUCACCCAUGUUCCGGAAACGGCACAGGAUAUCUGUCCGAAAAGGUCAGAGAAGGGUGAACCGACC [Fiskers NG3ss - 76] (Eterna round: R96, puzzle: Same State NG 3)	285	247	445			
GGUCGGACAAAACAUGAGGAUCACCCAUGUCCGGAAACGGCAUAGGAUAUCUGUCCGAAAAGGUCAGAGAAGGGUGAACCGACC [Fiskers NG3ss - 70] (Eterna round: R96, puzzle: Same State NG 3)	91.2	26.1	140			
GGUGAGAGAGUCUAGGAUAUGAAAGGAGAGACAUGAGGAUCACCCAUGUAAGAGAGAGAGGAGAGUUAGAAGGAGAAGAGAGUGG [Altered State 2-23 - Jieux - Same State 2] (puzzle: Same State 2)				26.8	32	47
GUAAAACAUGAGGAUCACCCAUGUCAACAAAGUCGAGGAUAUGGGCAAAUAAAAUAAGAACCAGAAGGCGAAUAAU [salish99_SS1_r3_011] (puzzle: Same State 1)				31.6	254	325
GUAAUACAUGAGGAUCACCCAUGUCAAUGUAGUCGAGGAUAUGGGUAGCUAUGAGGCGUACUAGAAGGCGAGGAGU [JL-ss1-3.18 ViennaUCT mod] (puzzle: Same State 1)				258	72.1	85.8
GUACUACAUGAGGAUCACCCAUGUACAAAGGUACGAGGAUAUGCAUGGACGAAAGUUGGUGCAGAAGGCGUGGUAC [Pin2Pin #5] (puzzle: Same State 1)				21.8	24.6	22.9
GUACUACAUGAGGAUCACCCAUGUACAAAUGUACGAGGAUAUGCAUGGACGAAAGUUGGUGCAGAAGGCGUAGUAC [Pin2Pin #4] (puzzle: Same State 1)					27.1	
GUACUCAUGUAAGGAUAUGCAGCCGUUUCGGCUGCAGAAGGUACUAUAAUACAUGAGGAUCACCCAUGUCUCUAUAAUUUGGUG [salish99_SSNG1_r04_902] (Eterna round: R96, puzzle: Same State NG 1)	177	62.4	132			
GUAGCAUACCGAGGAUAUUCAAAUUAACAUGAGGAUCACCCAUGUAGGCCACAUUAGUGGCCUUGGGAGAAGGCGGAAUGCUAC [Xeonanis - 20 Mod39] (Eterna round: R96, puzzle: Same State NG 2)	13.3	43.1	60.7			
GUAGCAUGCAGGCAGGAUAUUCAUAUUAAAACAUGAGGAUCACCCAUGUAGGCCGAAAGGCCUUGGGAGAAGGGCCACAUGCUAC [Xeonanis - 18] (Eterna round: R96, puzzle: Same State 2)	36.8	429	704			
GUAGCAUGCAGGCAGGAUAUUCAUAUUAAAACAUGAGGAUCACCCAUGUAGGCCGAAAGGCCUUGGGAGAAGGGCCACAUGCUAC [Xeonanis - 18] (puzzle: Same State 2)				34.3	453	1020
GUAUCUACAGGUUGCGAUGCUCGUCUGAUACAUGAGGAUCACCCAUGUUAUAGCCCUGUGCUUGCGCAGGGCUGAUU [Sensor for hsa-mir-208a ( MOD of Tearor v.2 )] (Eterna round: R96, puzzle: Sensor for hsa-mir-208a)	105	26.7	84.6			
GUAUCUACAGGUUGCGAUGCUCGUCUGAUACAUGAGGAUCACCCAUGUUAUAGCCCUGUGCUUGCGCAGGGCUGAUU [Sensor for hsa-mir-208a ( MOD of Tearor v.2 )] (puzzle: Sensor for hsa-mir-208a)				136	33.4	116
GUCCAACAUGAGGAUCACCCAUGUCGGGCGUGCACAGGAUAUCGCGCCGGGAAAGACCAGCGAGAAGGGUGAUCGA [Leriqu] (puzzle: Same State 1)				139	51.4	57.5
GUCGGUCUGUCGUGCUGAGGUGAUAGUUAACAUGAGGAUCACCCAUGUUGCUGUCGGGUCGUUGGGAGUUUUCUUCG [Modxample 118 - Jieux - Sensor for bsa-mir-208a] (Eterna round: R96, puzzle: Sensor for hsa-mir-208a)	19.1	15.4	22.5			
